Measured values published in US20100062001A1 (TECHNION RESEARCH AND DEVELOPMENT, published 2010).

Target: HLA-A2-G9-209 complex (as used for the affinity of 9H) (human, UniProt P61769 21-119; P40967 209-217)
Assay: method not stated (data not shown)

B1: 9H scFv antibody (scFv)
scFv: EVQLLESGGGLVQPGGSLRLSCAASGFTFQYYAMSWVRQAPGKGLEWVSSINWNSGTLDYADSVKGRFTISRDNSKNTLYLQMNSLRAEDTAVYYCARYSNYGLYAMDVWGQGTLVTVSSSGGGGSGGGGSGGGGSSDIVLTQPPSASGTPGQRVTISCSGSSSNIGSNPVTWYQQLPGTAPKPLIYGDSYRPSGVPDRFSGSKSGTSASLAISGLRSEDEADYYCATWDDDVNGVIFGGGTQLTVLR
notes: also called scFv 9H; clone 9H
With B1 the Kd was 0.5 nM.
